According to US20100260765A1 (AstraZeneca / MedImmune, published 2010):
Substitutions are numbered along the chain they refer to.

B1: 30H10 (antibody, V domains shown)
VH: EVQLLESGGGLVQPGGSLRLSCAASGFTFSNYAMSWVRQAPGKGLEWVSAISGSGGITYYADSVKGRFTISRDNSKNTLFLQMNSLRAEDTAVYYCAKASGDNWGQGTLVSVSS
VL: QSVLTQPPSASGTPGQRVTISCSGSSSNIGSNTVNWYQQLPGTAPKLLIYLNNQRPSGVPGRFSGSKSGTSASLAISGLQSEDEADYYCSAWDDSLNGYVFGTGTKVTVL
notes: Fully human monoclonal antibody from a XenoMouse hybridoma (IgG2 or IgG4 strain), purified
B2: anti-KDR monoclonal antibody 31E11 (antibody, V domains shown)
VH: QVQLVESGGGLVKPGGSLRLSCAASGFTFSDYYMSWIRQAPGKGLEWVSYISISGSTIYYADSVKGRFTISRDNAKNSLYLQMNSLRAEDTAVYYCARDDFWSGYYFNWFDPWGQGTLVTVSS
VL: DIQMTQSPSSLSASVGDRVTITCRANQTISTFLNWYQQNPGKAPKLLIYAASSLQSGVPSRFSGSGSGTDFTLTISSLQPEDFATYYCQQTYIIPLTFGGGTKVEIK
notes: Fully human mAb from XenoMouse (IgG2 or IgG4 strain); hybridoma supernatant
B3: anti-KDR monoclonal antibody 27D10 (antibody, V domains shown)
VH: QLQLQESGPGLVKPSETLSLTCTVSGGSISSRSDYWGWIRQPPGKGLEWIGTIYYSGSTFYNPSLKSRVTISVDTSKNQFSLKLSSVTAADTAVYYCARQQLVLYYFDYWGQGTLVTVSS
VL: not shown
notes: as for B2
B4: anti-KDR monoclonal antibody 32F4 (antibody, V domains shown)
VH: B3 VH with E16G, T21S, S58N, N78K
VL: EIVLTQSPGTLSLSPGERATLSCRTSQSVSSSYLAWYQQKPGQAPRLLIYGASSRATGVPDRFSGSGSGTDFSLTISRLEPEDFAVYYCQQYGSSPPLTFGGGTKVEIK
notes: as for B2
B5: anti-KDR monoclonal antibody 29D4 (antibody, V domains shown)
VH: B3 VH with D34N, S58H, F60Y, T70S, A90T, V94L, D108E
VL: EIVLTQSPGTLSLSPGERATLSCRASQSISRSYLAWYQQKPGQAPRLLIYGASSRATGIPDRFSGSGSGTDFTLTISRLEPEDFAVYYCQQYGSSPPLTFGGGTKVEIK
notes: as for B2

Legend:
human KDR [1] = target: T1, human KDR (human, UniProt P35968 20-1356); experiment: cell-based or functional assay
human KDR [2] = target: T1, human KDR; experiment: cell-based or functional assay; remark: listed apart in the source
human KDR [3] = target: T1, human KDR; experiment: cell-based or functional assay; remark: listed apart in the source
[4] = target: T2, whole KDR-ECD (Cat. # 676490, Calbiochem) (human, UniProt P35968 20-764); experiment: ELISA, KDR-ECD coat 5 ug/mL, antibody 1 ug/mL
T2 construct: extracellular domain; Bought soluble protein; also called soluble KDR; VEGF Receptor 2 D1-7
Protocol: (§1) The cross-reactivity of purified antibodies was tested against KDR mouse ortholog KDR mouse ortholog (mouse VEGFR2, or Flk-1) and human VEGFR1 (Flt-1). The ability of the antibodies to bind soluble KDR Ig4-7 domain and to the entire KDR extracellular domain (ECD) was also measured.
(§2) Cross-reactivity experiments were carried out and measured using an ELISA based assay as described in Example 6. […] Antibody controls included IgG1 and IgG4 (Sigma-Aldrich, Cat. #15154 and #14639, respectively).

[5] = target: T2, whole KDR-ECD (Cat. # 676490, …); experiment: ELISA, KDR-ECD coat 5 ug/mL, antibody 0.1 ug/mL
Protocol: as §1, §2

[6] = target: T2, whole KDR-ECD (Cat. # 676490, …); experiment: ELISA, KDR-ECD coat 5 ug/mL, antibody 0.01 ug/mL
Protocol: as §1, §2

soluble KDR Ig4-7 domain [7] = target: T3, soluble KDR Ig4-7 domain (human, UniProt P35968 328-764); experiment: ELISA, KDR Ig4-7 coat (1:1 diln.), antibody 1 ug/mL
T3 construct: domain: Ig4-7 domain; also called b-KDRIg4-7-myc-his; Ig4-7 domain of KDR; not shown: myc-his tag of the pSecTag construct
Protocol: as §1, §2

soluble KDR Ig4-7 domain [8] = target: T3, soluble KDR Ig4-7 domain; experiment: ELISA, KDR Ig4-7 coat (1:1 diln.), antibody 0.1 ug/mL
Protocol: as §1, §2

soluble KDR Ig4-7 domain [9] = target: T3, soluble KDR Ig4-7 domain; experiment: ELISA, KDR Ig4-7 coat (1:1 diln.), antibody 0.01 ug/mL
Protocol: as §1, §2

human KDR [10] = target: T1, human KDR; experiment: FACS titration of purified antibody on HUVEC cells (FACS Kd)
Protocol: The binding affinities of the purified antibodies for endogenously-expressed KDR in HUVEC cells was measured. HUVEC cells were seeded at 150,000 cells/well and incubated with titrations of purified antibody for 4 hours at 4° C. The cells were then washed and incubated with goat anti-human IgG-Fc-Cy5+5 μg/mL 7-Amino-Actinomycin (7AAD) for 30 minutes at 4° C. Bound KDR was detected using FACS analysis.

[11] = target: T4, human KDR (VEGFR2) on cells (human, UniProt P35968 20-1356); experiment: cell-based or functional assay
[12] = target: T4, human KDR (VEGFR2) on cells; experiment: cell-based or functional assay; remark: listed apart in the source
[13] = target: T4, human KDR (VEGFR2) on cells; experiment: cell-based or functional assay; remark: listed apart in the source
[14] = target: T4, human KDR (VEGFR2) on cells; experiment: FACS on HUVEC, hybridoma supernatant 1:50
How it was run: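 HUVECs incubated 1 h at 4° C with hybridoma supernatant at 1:50, then Cy5 goat anti-human antibody (5 μg/mL) plus 7AAD (5 μg/mL) for 15 min at 4° C. Cell-surface binding read by FACS; goat anti-KDR antibody as positive control, irrelevant hybridoma supernatants as negative controls.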

[15] = target: T5, mouse KDR (Flk-1)/Fc (Cat. #443-KD/CF, R&D Systems) (mouse, UniProt P35918 20-762); experiment: ELISA, plate-coated Flk-1/Fc 500 ng/mL, hybridoma supernatant 1:5
T5 construct: Bought reagent; also called mouse VEGFR2; KDR mouse ortholog; Fc part of the bought chimera not given

[16] = target: T6, soluble KDR (VEGF Receptor 2 D1-7, Cat. #676490, Calbiochem) (human, UniProt P35968 20-764); experiment: ELISA, plate-coated soluble KDR 250 ng/mL, hybridoma supernatant 1:5
T6 construct: extracellular domain; Bought reagent; also called soluble human KDR; immobilized soluble KDR
Protocol: To screen by binding to immobilized soluble KDR, plates were coated with KDR (Calbiochem) at 250 ng/mL overnight at 4° C. After blocking and washing the coated plates, the candidate hybridoma supernatants (at 1:5 dilution) were transferred to the plates and incubated for one hour at room temperature. The plates were then washed and incubated with secondary antibody (at 1:4000 dilution) for one hour at room temperature.

b-KDRIg4-7-myc-his = target: T7, b-KDRIg4-7-myc-his (UniProt P35968 328-764, prefix 'b-' not explained; captured on neutravidin-coated plates (presumably biotinylated, site not stated)); experiment: ELISA, b-KDRIg4-7-myc-his 1 ug/mL on neutravidin, hybridoma supernatant 1:5
T7 construct: domain: Ig4-7; The text calls it 'a KDR antibody containing the Ig4-7 domain'; it is read as the KDR fragment; Purified on a nickel column; also called Ig4-7 domain of KDR; soluble KDR Ig4-7; not shown: myc-his tag of the pSecTag vector
Protocol: To screen by binding to the Ig4-7 domain of KDR, plates were first coated with neutravadin (Pierce) at 4 μg/mL and incubated overnight at 4° C. The plates were then blocked and subsequently incubated with b-KDRIg4-7-myc-his at 1 μg/mL for one hour at room temperature. Candidate hybridoma supernatants (at 1:5 dilution) were transferred to the plates and incubated for one hour at room temperature. The plates were then washed and incubated with goat anti-human IgG Fc POD (at 1:4000 dilution) for one hour at room temperature.

T2 sequence (P35968 20-764): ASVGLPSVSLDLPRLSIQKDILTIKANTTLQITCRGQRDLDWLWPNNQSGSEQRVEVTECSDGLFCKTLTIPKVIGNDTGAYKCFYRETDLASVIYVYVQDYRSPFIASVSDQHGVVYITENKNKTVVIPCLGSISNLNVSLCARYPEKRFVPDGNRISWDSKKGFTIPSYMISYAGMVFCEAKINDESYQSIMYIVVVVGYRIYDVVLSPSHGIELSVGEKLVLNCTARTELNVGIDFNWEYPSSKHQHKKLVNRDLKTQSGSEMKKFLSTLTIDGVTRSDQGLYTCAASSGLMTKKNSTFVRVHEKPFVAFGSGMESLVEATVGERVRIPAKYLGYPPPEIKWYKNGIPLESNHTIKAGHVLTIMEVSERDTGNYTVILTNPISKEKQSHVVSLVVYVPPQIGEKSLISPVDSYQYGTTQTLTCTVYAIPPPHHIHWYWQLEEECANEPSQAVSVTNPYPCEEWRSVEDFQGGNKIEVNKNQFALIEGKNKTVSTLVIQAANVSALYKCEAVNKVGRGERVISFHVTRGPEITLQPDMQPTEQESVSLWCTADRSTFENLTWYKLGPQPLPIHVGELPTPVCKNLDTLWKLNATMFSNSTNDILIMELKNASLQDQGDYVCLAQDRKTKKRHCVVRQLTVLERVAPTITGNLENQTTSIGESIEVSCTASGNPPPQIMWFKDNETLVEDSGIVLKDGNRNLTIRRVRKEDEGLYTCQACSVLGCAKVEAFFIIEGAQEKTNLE
T6 sequence (P35968 20-764): as above
T5 sequence (P35918 20-762): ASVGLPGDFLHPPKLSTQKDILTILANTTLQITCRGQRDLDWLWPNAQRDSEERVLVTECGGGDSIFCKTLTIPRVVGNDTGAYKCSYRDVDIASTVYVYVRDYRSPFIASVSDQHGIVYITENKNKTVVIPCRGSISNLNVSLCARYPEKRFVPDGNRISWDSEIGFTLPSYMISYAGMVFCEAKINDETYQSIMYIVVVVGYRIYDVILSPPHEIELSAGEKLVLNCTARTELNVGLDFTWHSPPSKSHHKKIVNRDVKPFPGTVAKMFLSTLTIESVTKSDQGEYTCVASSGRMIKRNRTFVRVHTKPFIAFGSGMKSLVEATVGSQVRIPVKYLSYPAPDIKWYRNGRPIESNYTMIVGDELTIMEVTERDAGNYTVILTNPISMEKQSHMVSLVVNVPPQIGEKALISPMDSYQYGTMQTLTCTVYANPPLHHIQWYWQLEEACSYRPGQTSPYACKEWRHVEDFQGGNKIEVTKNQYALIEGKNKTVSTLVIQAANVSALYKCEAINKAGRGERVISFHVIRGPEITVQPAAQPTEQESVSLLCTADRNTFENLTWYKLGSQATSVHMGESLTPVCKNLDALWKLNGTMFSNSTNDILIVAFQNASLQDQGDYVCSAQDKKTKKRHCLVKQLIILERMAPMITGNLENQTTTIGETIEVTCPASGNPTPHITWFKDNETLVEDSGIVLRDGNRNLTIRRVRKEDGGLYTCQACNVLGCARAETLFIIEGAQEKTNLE
T7 sequence (P35968 328-764): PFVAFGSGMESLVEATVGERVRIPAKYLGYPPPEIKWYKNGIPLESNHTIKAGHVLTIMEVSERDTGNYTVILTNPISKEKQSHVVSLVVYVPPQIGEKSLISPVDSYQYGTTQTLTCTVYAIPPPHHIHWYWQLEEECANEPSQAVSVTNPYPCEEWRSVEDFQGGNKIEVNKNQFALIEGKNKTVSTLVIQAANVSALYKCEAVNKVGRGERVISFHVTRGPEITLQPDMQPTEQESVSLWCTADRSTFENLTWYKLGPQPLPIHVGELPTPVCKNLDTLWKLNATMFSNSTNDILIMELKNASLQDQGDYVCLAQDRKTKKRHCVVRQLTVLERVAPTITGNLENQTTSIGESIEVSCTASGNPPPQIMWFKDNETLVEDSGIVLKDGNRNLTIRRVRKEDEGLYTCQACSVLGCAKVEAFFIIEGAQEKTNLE
T3 sequence (P35968 328-764): as above
T4 sequence (P35968 20-1356): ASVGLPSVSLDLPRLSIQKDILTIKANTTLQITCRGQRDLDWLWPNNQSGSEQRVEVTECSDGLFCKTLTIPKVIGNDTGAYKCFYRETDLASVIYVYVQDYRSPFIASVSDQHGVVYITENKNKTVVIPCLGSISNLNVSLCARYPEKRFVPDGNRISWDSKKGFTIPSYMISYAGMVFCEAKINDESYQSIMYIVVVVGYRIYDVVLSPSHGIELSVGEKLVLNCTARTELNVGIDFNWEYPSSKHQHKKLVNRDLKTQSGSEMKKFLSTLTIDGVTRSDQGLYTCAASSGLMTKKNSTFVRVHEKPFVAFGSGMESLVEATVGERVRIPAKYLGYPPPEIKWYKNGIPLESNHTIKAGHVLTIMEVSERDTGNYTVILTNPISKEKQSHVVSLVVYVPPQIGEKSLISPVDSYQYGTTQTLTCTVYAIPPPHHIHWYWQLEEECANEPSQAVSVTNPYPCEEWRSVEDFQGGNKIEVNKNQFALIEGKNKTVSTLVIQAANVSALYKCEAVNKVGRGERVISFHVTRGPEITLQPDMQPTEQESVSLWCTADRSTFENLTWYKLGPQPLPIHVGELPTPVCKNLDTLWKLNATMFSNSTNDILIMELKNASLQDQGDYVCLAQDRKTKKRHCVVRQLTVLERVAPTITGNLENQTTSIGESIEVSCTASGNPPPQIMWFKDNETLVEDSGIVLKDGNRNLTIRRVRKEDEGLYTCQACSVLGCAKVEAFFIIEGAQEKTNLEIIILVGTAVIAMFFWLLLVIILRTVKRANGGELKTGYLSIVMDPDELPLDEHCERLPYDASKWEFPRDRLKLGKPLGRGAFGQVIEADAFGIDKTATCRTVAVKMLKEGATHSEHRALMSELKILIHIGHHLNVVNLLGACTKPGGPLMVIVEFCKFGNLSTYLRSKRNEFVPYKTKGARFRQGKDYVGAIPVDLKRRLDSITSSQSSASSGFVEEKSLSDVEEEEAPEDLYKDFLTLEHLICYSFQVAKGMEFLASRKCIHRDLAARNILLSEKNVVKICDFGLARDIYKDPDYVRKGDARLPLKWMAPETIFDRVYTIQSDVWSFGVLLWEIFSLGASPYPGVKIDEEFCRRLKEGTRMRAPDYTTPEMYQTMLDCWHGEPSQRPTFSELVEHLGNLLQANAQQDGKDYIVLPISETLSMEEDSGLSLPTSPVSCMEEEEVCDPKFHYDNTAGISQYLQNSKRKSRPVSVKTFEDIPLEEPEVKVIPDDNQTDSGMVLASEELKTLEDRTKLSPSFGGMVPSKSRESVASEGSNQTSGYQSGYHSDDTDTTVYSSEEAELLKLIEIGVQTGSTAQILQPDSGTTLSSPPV
T1 sequence (P35968 20-1356): as above

Binder | % Inhibition of VEGF165-mediated pTyr Activity, Average [11] [%] | % Inhibition of VEGF165-mediated pTyr Activity, n = 1 [11] [%] | % Inhibition of VEGF165-mediated pTyr Activity, n = 2 [11] [%] | % Inhibition of VEGF165-mediated pTyr Activity, n = 3 [11] [%] | % Inhibition of VEGF-E-mediated pTyr Activity [12] [%] | HUVEC survival (n = 1) 1:10 dilution of supernatant (RLU) [13] [RLU] | HUVEC survival (n = 2) 1:20 dilution of supernatant (RLU) [13] [RLU] | FACS Geometric Mean [14] | OD (450 nm) [15] [OD450] | KDR OD(450 nm) [16] [OD450] | b-KDRIg4-7 OD(450 nm) (b-KDRIg4-7-myc-his) [OD450] | also measured
B1 |  |  |  |  |  |  |  |  |  |  |  | KDR tyrosine phosphorylation in HUVEC, EC50 (nM), Average (human KDR [1]): 0.4 nM; KDR tyrosine phosphorylation in HUVEC, EC50 (nM), N = 1 (human KDR [1]): 0.6 nM; KDR tyrosine phosphorylation in HUVEC, EC50 (nM), N = 2 (human KDR [1]): 0.2 nM; KDR tyrosine phosphorylation in HUVEC, Maximum Inhibition at 100 nM (% Inhibition), Average (human KDR [1]): 29%; KDR tyrosine phosphorylation in HUVEC, Maximum Inhibition at 100 nM (% Inhibition), N = 1 (human KDR [1]): 36%; KDR tyrosine phosphorylation in HUVEC, Maximum Inhibition at 100 nM (% Inhibition), N = 2 (human KDR [1]): 22%; HUVEC survival, Maximum Inhibition at 50 nM (% Inhibition), Average (human KDR [2]): -5%; HUVEC survival, Maximum Inhibition at 50 nM (% Inhibition), N = 1 (human KDR [2]): -9%; HUVEC survival, Maximum Inhibition at 50 nM (% Inhibition), N = 2 (human KDR [2]): -1%; 6-keto Prostaglandin F1α release, Maximum Inhibition (% Inhibition), Average (human KDR [3]): 3%; 6-keto Prostaglandin F1α release, Maximum Inhibition (% Inhibition), N = 1 (200 nM) (human KDR [3]): 0%; 6-keto Prostaglandin F1α release, Maximum Inhibition (% Inhibition), N = 2 (333 nM) (human KDR [3]): 6%; ELISA reading [4]: 2.47; ELISA reading [5]: 0.31; ELISA reading [6]: 0.117; ELISA reading (soluble KDR Ig4-7 domain [7]): 3.04; ELISA reading (soluble KDR Ig4-7 domain [8]): 2.77; ELISA reading (soluble KDR Ig4-7 domain [9]): 1.36; Kd (human KDR [10]): 900 pM
B2 | 74 | 81 | 80 | 59 | 67 | 9140 | 6980 | 18 | 0.162 | 1.14 | 1.28 | 
B3 | 58 | 62 | 48 | 63 | 63 | 20100 | 9710 | 24 | 0.166 | 3.24 | 2.03 | 
B4 | 73 | 88 | 76 | 56 | 62 | 20100 | 5030 | 27 | 0.094 | 0.907 | 2.29 | 
B5 | 72 | 85 | 67 | 63 | 67 | 12900 | 5380 | 26 | 0.1 | 1 | 2.61 | 
